What was measured:
[1] = biological target: T1, rat IGFBP-3 (RBP-3 E. coli) (Rattus norvegicus, UniProt P15473); assay: Solid-phase binding of HRP-IGF-II to immobilized IGFBP-3, competitive inhibition; settings: for inhibitory activity against the binding of IGF-II to IGFBP-3 (RBP-3 E. coli): final concentration of each compound 100 μg/ml, compared to the other test compounds of Table 1
T1 construct: made in house; host or cells: Escherichia coli (periplasm)
Protocol: A 96-well microtiter plate manufactured by Costar Corp.; 50 mM sodium phosphate buffer (pH 6.5) as a basic buffer for immuobilization; basic buffer supplemented with 0.03% Tween 20, basic buffer supplementee with 1% BSA and basic buffer supplemented with 0.25% BSA an 0.03% Tween 20 were used in the washing, blocking and binding steps, respectively. After each reaction, wells were washed twice with 400 μl/well of buffer. Horseradish peroxidase-labeled IGF-II (hereinafter “HRP-IGF-II”) was prepared using a commercially available kit (PIERCE Chemichal Company).
To the microtiter plate, RBP-3 E. coli (150 ng/ml) was added in an amount of 50 μl/well and allowed to stand overnight at 4° C. for immobilization. After blocking, 50 μl/well of HRP-IGF-II (final concentration diluted 12,000-fold) was added at 25° C. for 2 hours in the presence or absence of a test compound. Test compounds at various concentrations were added to each well in a total volume of 50 μl.
In the final step, a solution of 2,2′-azino-bis(3-ethylbenzthiazoline-6-sulfonic acid) (hereinafter “ABTS”; Kirkegaard & Perry Laboratories) was added to each well (100 μl/well) and allowed to stand at room temperature. The absorbance (O.D.) at 405 nm was measured on a plate reader (“VMAX™”, Molecular Devices).
The absorbance in the absence of a test compound is designated “B0”, and in the presence of a test compound is designated as “B”. The absorbance in the absence of both a test compound and using a non-immobilized well (a well not containing RBP-3 E. coli) is designated as nonspecific bound (NSB). The percent binding of labeled IGF-II to immobilized IGFBP-3 in the presence of a test compound is calculated from the following equation: […]
The binding reactions for each of the test compounds, was performed triplicate. The average value is plotted and the SD value is indicated with a bar (refer to FIG. 8).
Each compound was dissolved or suspended in basic buffer containing 5% methanol at a final concentration of 1 mg/ml. The resulting solution or suspension was diluted with the reaction buffer 5-fold or to a final concentration of 200 μg/ml. The final concentration of each compound at the time of measurement was 100 μg/ml.
The percent binding of IGF-II to IGFBP-3 (RBP-3 E. coli) in the presence of a test compound was calculated using the following formula:
“percent total bound (100(%))−percent actual bound (%)”=percent inhibitory activity (%) of the test specimen.
Measurements for each of the test compounds were performed twice, and the average inhibitory activity was determined.

[2] = Evaluation of blood lipid level (1), nonfasting SD rats; assay type: in vivo; settings: plasma; for total glyceride concentration 6 hours after administration, compared to negative control: IGF-I 50 μg/kg s.c., anti-RBP-3 pAb #35 20 mg/head i.p.; for total glyceride concentration 6 hours after administration, compared to negative control / total cholesterol concentration 24 hours after administration, compared to negative control: [Leu27, Leu43]rIGF-II 1,000 μg/kg s.c.
Protocol: [Leu27, Leu43]rIGF-II (1,000 μg/kg) was administered, subcutaneously, to a group of nonfasting SD rats (n=3, 8 weeks old, male, average weight: 300 g, purchased from Charles River Japan).
Anti-RBP-3 pAb #35 (20 mg/head) was administered, intraperitoneally, to another group of SD rats.
As a negative control, physiological saline (500 μl/head) was administered, subcutaneously, and as a positive control group, IGF-I (50 μg/kg, 200 μg/kg) was administered, subcutaneously.
About 500 μl of blood was sequentially collected into EDTA-coated glass tubes from the caudal vein. Thirty minutes after collection, the blood was centrifuged (3,500 rpm×12 mm 25° C.), and plasma supernatant was recovered and stored at −80° C. until assayed. The total cholesterol and total triglyceride concentrations of the plasma were measured in accordance with a “Hitachi 715 model” automatic analyzer using the enzyme method of “Autocera CH02 and TG2” (each, manufactured by Daiichi Pure Chemicals Co., Ltd.).

[3] = adult humans, intravenous injection, 100 μg/kg; Guler et al. 1987; cited from earlier work
IGF-I receptor = IGF-I receptor (Homo sapiens, UniProt P08069); settings: Sakano et al. 1991; cited from earlier work
IGFBP-3 = IGFBP-3 (Homo sapiens, UniProt P17936); settings: Bach et al. 1993; cited from earlier work
[4] = biological target: IGF-II/cation-independent mannose-6-phosphate receptor (Homo sapiens, UniProt P11717); settings: Sakano et al. 1991; cited from earlier work
cell proliferation = settings: Sakano et al. 1991; cited from earlier work
insulin receptor = insulin receptor (Homo sapiens, UniProt P06213); settings: Sakano et al. 1991; cited from earlier work
[5] = biological target: T2, human placental IGF-I receptor (Homo sapiens, UniProt P08069); assay: IGF-I receptor radioreceptor binding assay with 125I-IGF-I
T2 construct: human placental IGF-I receptor; from tissue; host or cells: human placenta
Protocol: (§1) The [Leu27, Leu43]rIGF-II derivative described in Example 8, was characterized for its binding affinity to human placental IGF-I receptor and human placental insulin receptor using a radioreceptor assay (Le Bon, T. R., et al., J. Biol. Chem., 261, 7685 (1986); Fujita-Yamaguchi, Y., et al., J. Biol. Chem., 258, 5045 (1983)).
(§2) In the first step, ^125I-IGF (or ^125I-insulin) (Amersham International plc) in an amount of 2×10^4 cpm was incubated with various amounts of the IGF receptor or the insulin receptor, to determine an amount of the receptor to which 50% of ^125I-IGF (or ^125I-insulin) binds.
(§3) [Leu27, Leu43]rIGF-II was added at various concentrations to aliquots of the mixture containing the determined amount of the receptor and ^125I-IGF (or ^125I-insulin) (2×10^4 cpm). The final volume of the reaction mix was brought to […] using a 50 mM Tris-HCl buffer (pH 7.4) containing 0.1% BSA and 0.075% Triton X-100, and allowed to incubate overnight at 4° C. […] The reaction mixture was centrifuged (3000 rpm×30 min, 4° C.), the supernatant decanted, and the cpm value for the pellet was measured by gamma counting. […]
(§4) The cpm value in the absence of a receptor is designated as nonspecific bound (NSB). […] The percent binding to a receptor is calculated from the following equation: […]

[6] = biological target: T3, human placental insulin receptor (Homo sapiens, UniProt P06213); assay: Insulin receptor radioreceptor binding assay with 125I-insulin
T3 construct: human placental insulin receptor; from tissue; host or cells: human placenta
Protocol: as §1, §2, §3, §4

T1 sequence (P15473 28-292): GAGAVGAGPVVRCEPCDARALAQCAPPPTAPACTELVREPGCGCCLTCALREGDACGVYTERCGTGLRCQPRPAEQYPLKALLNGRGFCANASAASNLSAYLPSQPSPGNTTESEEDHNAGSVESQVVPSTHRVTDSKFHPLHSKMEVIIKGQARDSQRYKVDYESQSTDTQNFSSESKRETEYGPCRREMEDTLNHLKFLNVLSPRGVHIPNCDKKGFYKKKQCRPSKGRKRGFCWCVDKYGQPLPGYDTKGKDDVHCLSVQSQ
IGFBP-3, sequence (P17936 28-291, species assumed): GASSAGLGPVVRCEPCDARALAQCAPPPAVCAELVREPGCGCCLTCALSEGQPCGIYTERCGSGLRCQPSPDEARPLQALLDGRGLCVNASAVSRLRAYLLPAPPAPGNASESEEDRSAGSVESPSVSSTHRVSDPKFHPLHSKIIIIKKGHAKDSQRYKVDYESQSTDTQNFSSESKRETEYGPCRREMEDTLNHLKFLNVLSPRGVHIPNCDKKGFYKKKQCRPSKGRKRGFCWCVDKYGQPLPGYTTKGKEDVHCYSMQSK
IGF-II/cation-independent mannose-6-phosphate receptor, sequence (P11717 41-2491): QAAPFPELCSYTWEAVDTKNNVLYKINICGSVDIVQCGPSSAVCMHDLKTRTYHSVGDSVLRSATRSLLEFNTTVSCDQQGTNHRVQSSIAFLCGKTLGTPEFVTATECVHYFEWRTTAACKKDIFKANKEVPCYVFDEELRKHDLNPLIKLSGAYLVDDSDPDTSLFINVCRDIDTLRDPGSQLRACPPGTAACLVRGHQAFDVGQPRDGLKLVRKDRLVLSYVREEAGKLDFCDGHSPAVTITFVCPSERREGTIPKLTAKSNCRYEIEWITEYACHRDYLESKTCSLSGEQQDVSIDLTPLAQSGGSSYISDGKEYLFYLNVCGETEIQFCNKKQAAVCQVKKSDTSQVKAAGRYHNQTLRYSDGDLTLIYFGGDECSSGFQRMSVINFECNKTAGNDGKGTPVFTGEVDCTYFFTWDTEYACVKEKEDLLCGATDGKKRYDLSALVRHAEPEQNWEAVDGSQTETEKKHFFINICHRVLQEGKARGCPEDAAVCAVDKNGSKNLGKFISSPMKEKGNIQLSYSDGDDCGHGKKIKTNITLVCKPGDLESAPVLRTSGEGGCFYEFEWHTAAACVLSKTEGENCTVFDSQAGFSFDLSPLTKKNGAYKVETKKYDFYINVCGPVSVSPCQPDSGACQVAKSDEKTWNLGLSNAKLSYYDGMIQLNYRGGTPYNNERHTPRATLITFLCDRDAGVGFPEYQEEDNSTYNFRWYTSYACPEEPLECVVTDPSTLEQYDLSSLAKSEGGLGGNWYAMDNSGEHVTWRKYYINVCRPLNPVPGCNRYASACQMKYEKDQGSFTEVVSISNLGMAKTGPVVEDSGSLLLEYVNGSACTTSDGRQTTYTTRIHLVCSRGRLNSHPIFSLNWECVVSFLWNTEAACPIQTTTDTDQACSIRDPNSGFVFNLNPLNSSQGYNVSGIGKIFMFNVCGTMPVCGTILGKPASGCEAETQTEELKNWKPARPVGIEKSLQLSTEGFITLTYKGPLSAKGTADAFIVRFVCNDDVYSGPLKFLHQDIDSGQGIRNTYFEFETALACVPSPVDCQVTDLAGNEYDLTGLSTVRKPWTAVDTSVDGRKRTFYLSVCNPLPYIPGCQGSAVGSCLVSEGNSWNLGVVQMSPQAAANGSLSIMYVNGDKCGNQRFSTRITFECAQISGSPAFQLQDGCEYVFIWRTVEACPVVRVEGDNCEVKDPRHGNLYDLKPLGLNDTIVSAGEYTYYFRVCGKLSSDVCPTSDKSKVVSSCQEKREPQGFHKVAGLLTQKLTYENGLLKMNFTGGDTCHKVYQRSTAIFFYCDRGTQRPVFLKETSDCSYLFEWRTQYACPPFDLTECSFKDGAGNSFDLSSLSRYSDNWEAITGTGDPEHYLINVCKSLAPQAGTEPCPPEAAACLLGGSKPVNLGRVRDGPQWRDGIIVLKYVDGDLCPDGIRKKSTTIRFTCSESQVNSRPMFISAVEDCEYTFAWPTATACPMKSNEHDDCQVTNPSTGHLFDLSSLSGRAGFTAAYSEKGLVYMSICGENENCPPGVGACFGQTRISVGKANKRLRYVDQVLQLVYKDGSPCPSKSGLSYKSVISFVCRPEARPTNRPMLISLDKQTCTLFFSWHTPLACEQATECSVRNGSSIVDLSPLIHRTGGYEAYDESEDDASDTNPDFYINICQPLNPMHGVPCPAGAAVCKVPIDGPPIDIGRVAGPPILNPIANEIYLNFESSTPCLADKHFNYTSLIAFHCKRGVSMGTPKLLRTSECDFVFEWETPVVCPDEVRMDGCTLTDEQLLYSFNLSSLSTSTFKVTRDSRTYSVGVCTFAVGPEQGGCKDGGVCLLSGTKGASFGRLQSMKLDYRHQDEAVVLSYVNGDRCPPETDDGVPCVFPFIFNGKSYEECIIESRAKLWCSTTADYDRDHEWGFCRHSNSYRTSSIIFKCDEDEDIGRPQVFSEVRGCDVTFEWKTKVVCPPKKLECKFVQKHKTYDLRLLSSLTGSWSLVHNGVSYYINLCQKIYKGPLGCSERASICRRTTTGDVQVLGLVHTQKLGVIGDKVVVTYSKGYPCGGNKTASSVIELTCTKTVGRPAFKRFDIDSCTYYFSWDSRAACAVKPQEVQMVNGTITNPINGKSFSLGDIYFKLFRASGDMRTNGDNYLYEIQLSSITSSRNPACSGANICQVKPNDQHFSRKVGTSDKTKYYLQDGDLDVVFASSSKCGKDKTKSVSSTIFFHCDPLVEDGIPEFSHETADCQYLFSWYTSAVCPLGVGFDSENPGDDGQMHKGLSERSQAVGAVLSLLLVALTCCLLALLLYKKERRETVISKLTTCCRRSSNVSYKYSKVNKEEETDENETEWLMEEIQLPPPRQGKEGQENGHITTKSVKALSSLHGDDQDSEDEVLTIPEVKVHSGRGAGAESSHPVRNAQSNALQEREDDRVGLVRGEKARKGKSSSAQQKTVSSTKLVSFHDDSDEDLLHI

O=c1oc2c(O)c(O)cc3c(=O)oc4c(O)c(O)cc1c4c23 [Compound 27, Ellagic acid]
inhibitory activity against the binding of IGF-II to IGFBP-3 (RBP-3 E. coli) [1]: potent inhibitory activity

IGF-I: Human IGF-I purchased from GroPep Pty. Ltd.; positive control
total glyceride concentration 6 hours after administration, compared to negative control [2]: significantly decreased | total cholesterol concentration 6 hours after administration, compared to negative control ([2]; IGF-I 200 μg/kg s.c.): significantly decreased | total cholesterol concentration 24 hours after administration, compared to negative control ([2]; IGF-I 200 μg/kg s.c.): significantly decreased | blood glucose levels [3]: lowering of blood glucose levels | time of lowest blood glucose level after injection [3]: 20 min

[Leu 43] rIGF-II: human IGF-II derivative with a single amino acid substitution (Leu at position 43), from the literature
binding to the IGF-I receptor (IGF-I receptor): almost no binding | binding to IGFBP-3 compared to wild type (IGFBP-3): almost similar to the wild type | binding to the IGF-II/cation-independent mannose-6-phosphate receptor [4]: bind | effect on cell proliferation (cell proliferation): significantly lowered effect | binding to the insulin receptor (insulin receptor): almost no binding

CC[C@@]1(O)C[C@H](O[C@H]2C[C@H](N(C)C)[C@H](O[C@H]3C[C@H](O)[C@H](O[C@H]4CCC(=O)[C@H](C)O4)[C@H](C)O3)[C@H](C)O2)c2c(cc3c(c2O)C(=O)c2c(O)cccc2C3=O)[C@H]1C(=O)OC [Compound 29, Aclacinomycin A]
inhibitory activity against the binding of IGF-II to IGFBP-3 (RBP-3 E. coli) [1]: potent inhibitory activity

[Leu27, Leu43]rIGF-II: human IGF-II derivative; tyrosine at residue 27 and valine at residue 43 each replaced with leucine
total glyceride concentration 6 hours after administration, compared to negative control [2]: tendency toward lowering | total cholesterol concentration 24 hours after administration, compared to negative control ([2]; IGF-I 200 μg/kg s.c.): significant decrease | affinity for / binding to the IGF-I receptor [5]: little or no binding | affinity for the IGF-I receptor, as % of that for IGF-I [5]: 1 to 2% | affinity for / binding to the insulin receptor [6]: little or no binding | affinity for the insulin receptor, as % of that for insulin [6]: 1 to 2% | affinity for IGFBP-3 [1]: has affinity for IGFBP-3 | inhibition of the binding of IGF (labeled IGF-II) and immobilized IGFBP-3 ([1]; procedure of Example 10): at concentrations similar to those seen for IGF-II

[Leu 27] rIGF-II: human IGF-II derivative with a single amino acid substitution (Leu at position 27), from the literature
binding to the IGF-I receptor (IGF-I receptor): almost no binding | binding to IGFBP-3 compared to wild type (IGFBP-3): almost similar to the wild type | binding to the IGF-II/cation-independent mannose-6-phosphate receptor [4]: bind | effect on cell proliferation (cell proliferation): significantly lowered effect | binding to the insulin receptor (insulin receptor): almost no binding

Heparin [Compound 31]
inhibitory activity against the binding of IGF-II to IGFBP-3 (RBP-3 E. coli) [1]: potent inhibitory activity

Source: US6428781B1, “Composition of an endogenous insulin-like growth factor-II derivative” (Daiichi Pharmaceutical Co., Ltd., priority 1996, dated 2002)
